System: K4 kissing-loop RNA reporter
Experiment: apparent KD of K4 kissing-loop reporter; higher = weaker reporter binding
Settings: Eterna round: R107
Description: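 RNA-MaP round R107: designed RNA switches with theophylline, tryptophan, arginine or FMN aptamers are transcribed on-chip within common flanks. They are titrated with a labelled K4 kissing-loop RNA reporter in RNA-MaP buffer (100 mM Tris pH 7.5, 80 mM KCl, 4 mM MgCl2), without ligand or with the indicated ligand. Median apparent KD per design.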

[1] = input ligand: theophylline 20 uM
[2] = input ligand: tryptophan 2.4 mM
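Further: bound reporter read as fluorescence of individual clusters on recovered sequencing chips by microscopy, with normalized cluster intensities fitted with a binding model.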

Row | Sequence | apparent KD of K4 kissing-loop reporter (input ligand: FMN 200 uM) | apparent KD of K4 kissing-loop reporter (input ligand: arginine 13.2 mM) | apparent KD of K4 kissing-loop reporter (input ligand: none) | apparent KD of K4 kissing-loop reporter [1] | apparent KD of K4 kissing-loop reporter [2]
1 | GUCUCGAGUGAUGUUCGGGUCGUUUGGGAAGGAGCGCCCGGAAGGGCAGGUAGGUCGCCCGGACCGCGCGGGCAACCGCGCGGCC [#2 Same State - Arginine A Attempt #12 (HarryS)] | 228 nM | 162 nM | 217 nM | 212 nM | 192 nM
2 | GUGAGUGACGGAGGAUAUGCGAUAGAUGUAGGAAAAUUAGUGAUGUUAGUUAUGGUAGAGAUAGAAGUAGAAGGUUGGUGUGUGU [RHig 3/7] | 551 nM | 394 nM | 561 nM | 585 nM | 395 nM
3 | GUGCAGUGAUGUUGCACGAGGAAAGACGAUACCAGCCGUAAAUAAGGCCCUUGGCAGCGUAGGCUAGCAUAAAGCAUGCUAGUCC [Edeson] | 131 nM | 98.8 nM | 111 nM | 98.4 nM | 78 nM
4 | GUGCAGUGAUGUUGCACGAGGAAAGACGAUACCAGCCGUAAAUAAGGCCCUUGGCAGCGUGGGCUAGCAUAAAGCAUGCUAGUCU [Edbemavela] | 126 nM | 97.7 nM | 113 nM | 111 nM | 99.6 nM
5 | GUGGUGGUGGCGGCCGCCACUGAAGAUAAUGAGUGAUGUUCAAGUGAUGUUAAUAAGAACAGUAUCAGGACCGGGCCACCACCAC [Default title] | 37.5 nM | 27.7 nM | 34.1 nM | 25.4 nM | 33.8 nM
6 | GUUACGCAUGGAAGGAGCGCACUCCGAUUGGACGACACAGUGAUGUUGUGGUUCGUUCGAAUGCAGGUAGGUCGCCAUGUGUAAC [Ex Arginine B K4 19] | 159 nM | 148 nM | 150 nM | 134 nM | 148 nM
7 | GUUACGCAUGGAAGGAGCGCGAAAAUUUAUAGUGAGUGAUGUUCACAAAUAAGAAUAAUAACGCAGGUAGGUCGCCAUGUGUAAC [Ex Arginine B K4 5] | 87.1 nM | 86.8 nM | 105 nM | 118 nM | 95.2 nM
8 | GUUAUGGACCUUUUGAUCGUUCGUAGCGAUACCAGACAAUGGGCAGUCCCUUGGCAGCGCUAAUUGAGUGAUGUUCAAACGUGCA [theeternabot_exclusion_KL_Theo_A_46] | 730 nM | 309 nM | 680 nM | 331 nM | 364 nM
9 | UAACUGCAGUGAUGUUGCAGAUGUCCUGACUAGGAUAUCAGGAAACUGAGAAGGAGUCCCUUCUACACUGCAGAGAAGGAGGACA [[K1]-[K2]-[F1]'-[F1]-[F2]-[F2]'-[K]'-[F]''_Design1] | 283 nM | 125 nM | 145 nM | 125 nM | 139 nM
10 | UAACUUGCAGUGAUGUUGCAAGAACUGGAUACCAGCAUGGAAACAUGCCCUUGGCAGCCAGAAGGUAUCCUACAUCACAGAUACU [Design2] | 220 nM | 202 nM | 214 nM | 226 nM | 197 nM
11 | UAACUUGCAGUGAUGUUGCAAGAACUGGAUACCAGCAUGGAAACAUGCCCUUGGCAGCCAGAAGGUAUCCUCUGCAAGAGAUACA [Design1] | 318 nM | 274 nM | 311 nM | 289 nM | 292 nM
12 | UAAGAUUCUGUCUCAUUGAGACAGAAUCAACGAGGACCGGUACGGCCGCCACUCGGGUCCUAGAGUGAUGUUCUAAUAAUAUAAU [AK1 SS Tryptophan A] | 283 nM | 350 nM | 296 nM | 369 nM | 176 nM
13 | UAAUAAUAAUGAUAAUAAUCAAGUGGUGGACGAGGACCGGUACGGCCGCCACUCGAAAAUGCAGUGAUGUUGUAAUACGGAUAAU [Exclusion - Tryptophan A (Freestyle 2)] | 98.3 nM | 180 nM | 133 nM | 203 nM | 94.3 nM
14 | UAAUGGUAAGUGAUGUUUACCUGGAACGAUACCAGUCGCCAUGAGGACCCUUGGCAGCGUCACACAGCCUUCUAGUUGUGGUCUU [theeternabot_sameState_KL_Theo_A_46] | 418 nM | 298 nM | 347 nM | 499 nM | 353 nM
15 | UACUAUAUUCUGUCGUUUAUAUUAUUUUGUCAGGAUAUCGUUUAUUCGAGAAGGGACACUAUCUAGUGAUGUUAGAUUUUUCUUU [JR_Nu_ExcFMNA_Sub029] | 55.8 nM | 130 nM | 86.7 nM | 108 nM | 67.7 nM
16 | UACUUAUUUUUUAACUUAAAUUUUUCAGAAGGAGCGUGAUCAUUCACAGGUAGGUCGCUGAACUAGUGAUGUUAGUUUUAAUUUU [JR_Nu_ExcArginiA_Sub024] | 62.9 nM | 115 nM | 63.9 nM | 104 nM | 56.5 nM
17 | UAGCAUUUGCUCGAGUGAUGUUCGAGCGAAGGAGCGCGAGAAAUCGCAGGUAGGUCGCGCUCGAACUAUGAGCGAUCAUUUAUUG [Arg A Ex t2d] | 363 nM | 232 nM | 312 nM | 395 nM | 331 nM
18 | UAGUCCUAGUGAUGGUUAUCACGUGGUGGGCGAGGACCGGUACGGCCGCCACUCGACUAUGCAGUGAUGUUGCAAUCCGGACAAU [Exclusion - Tryptophan A (Freestyle 16)] | 319 nM | 411 nM | 423 nM | 353 nM | 116 nM
19 | UAUAAUUCGGCGGCCGCCACUGACCAUAGCCUUCGAUGGCCAGUGAUGUUGGCCUCUGGCUCUAACAGGACCGGGCCGAAUUGUG [Reresoza] | 211 nM | 164 nM | 180 nM | 138 nM | 120 nM
20 | UAUAGAAACGUCCUAUCAGUAAAAUGGGAAGGAGCGAGGAAGGACUCAGGUAGGUCGCCCAAUAACCUUAGUGAUGUUAAGGAAA [Version 2] | 155 nM | 128 nM | 131 nM | 112 nM | 122 nM
21 | UAUAUAGUGACGGCCGCCACUAUAGUGAUGUUAUUGUUAGAGUGAUGUUUUGUUGUUUAAUUUUGUAGGACCGGGUUAUAUGUUA [tbbtmullin] | 632 nM | 418 nM | 504 nM | 497 nM | 446 nM
22 | UAUAUAGUGACGGCCGCCACUAUAUUAAUGUUUUUGUUAGAGUGAUGUUUUGUUUUUUAAUUUUAUAGGACCGGGUUAUAUGUUA [xnxmullin] | 275 nM | 155 nM | 253 nM | 335 nM | 188 nM
